Laboratory results: patent publication US20120172293A1 (Takeda / Millennium, published 2012)
Starred links: 1 amine or outer side, 2 acyl side, 3 side chain; linkers in the order of their positions; H or OH if unused. Non-standard residues stand in square brackets, D forms with d. No end group written: not given here. *: point of attachment. X4 = ((1S)-1-Carboxy-3-methylbutyl)carbamoyl, CC(C)C[C@H](NC(=O)*)C(=O)O; Ala(piperidin-4-yl) = O=C([C@H](CC1CCN([*:3])CC1)N[*:1])[*:2]; Imidazole4carbonyl = O=C(c1cnc[nH]1)*; Arg(Me) = CNC(=N)NCCC[C@H](N)C(=O)O; hArg = N=C(N)NCCCC[C@H](N)C(=O)O; tBuAla = CC(C)(C)C[C@H](N)C(=O)O; 4Pal = N[C@@H](Cc1ccncc1)C(=O)O; Cha = N[C@@H](CC1CCCCC1)C(=O)O; Isonicotinoyl = O=C(c1ccncc1)*; Suc = O=C(CCC(=O)[*:2])[*:1]; Iva = CC[C@](C)(N)C(=O)O; Nle = CCCC[C@H](N)C(=O)O; Aib = CC(C)(N)C(=O)O; Ahx = NCCCCCC(=O)O

Tests used:
[1] = biological target: human Y2 receptor (human) (UniProt P49146); assay: cell-based or functional assay
Chain of human Y2 receptor (human) (P49146 whole entry): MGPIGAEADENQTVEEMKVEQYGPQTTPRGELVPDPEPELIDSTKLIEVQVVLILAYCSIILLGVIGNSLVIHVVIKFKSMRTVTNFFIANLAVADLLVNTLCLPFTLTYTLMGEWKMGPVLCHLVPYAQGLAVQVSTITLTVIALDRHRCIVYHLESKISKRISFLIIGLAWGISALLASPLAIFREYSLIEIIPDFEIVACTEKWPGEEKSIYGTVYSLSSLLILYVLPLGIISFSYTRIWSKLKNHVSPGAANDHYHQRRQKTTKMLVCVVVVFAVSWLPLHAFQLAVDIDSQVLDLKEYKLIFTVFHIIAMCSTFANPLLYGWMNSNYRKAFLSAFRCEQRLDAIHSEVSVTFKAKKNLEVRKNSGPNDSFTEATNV

[2] = biological target: human Y2 receptor (human) (UniProt P49146); assay: RBA: displacement of [125I]-PYY from hY2R/CHO membranes

Binder | GBA EC50 Ratio ([35S]GTPγS binding) (EC50 compound/EC50 PYY(3-36)) [1] | IC50 Ratio (IC50 compound/IC50 PYY(3-36)) [2]
Ac-S[dP][hArg]H[Cha][Aib]NK[Aib]TRQR[Cha]-NH2 (SMILES CC(=O)N[C@@H](CO)C(=O)N1CCC[C@@H]1C(=O)N[C@@H](CCCCNC(=N)N)C(=O)N[C@@H](Cc1c[nH]cn1)C(=O)N[C@@H](CC1CCCCC1)C(=O)NC(C)(C)C(=O)N[C@@H](CC(N)=O)C(=O)N[C@@H](CCCCN)C(=O)NC(C)(C)C(=O)N[C@H](C(=O)N[C@@H](CCCNC(=N)N)C(=O)N[C@@H](CCC(N)=O)C(=O)N[C@@H](CCCNC(=N)N)C(=O)N[C@@H](CC1CCCCC1)C(N)=O)[C@@H](C)O) [Ac-[D-Pro24, Har25, Cha27,36, Aib28,31, Lys30]-PYY(23-36)] | 2.7 | 1.2
Suc-[dP]R[4Pal][Cha][Aib]NK[Aib]TRQR[Cha]-NH2 (SMILES C[C@@H](O)[C@H](NC(=O)C(C)(C)NC(=O)[C@H](CCCCN)NC(=O)[C@H](CC(N)=O)NC(=O)C(C)(C)NC(=O)[C@H](CC1CCCCC1)NC(=O)[C@H](Cc1ccncc1)NC(=O)[C@H](CCCNC(=N)N)NC(=O)[C@H]1CCCN1C(=O)CCC(=O)O)C(=O)N[C@@H](CCCNC(=N)N)C(=O)N[C@@H](CCC(N)=O)C(=O)N[C@@H](CCCNC(=N)N)C(=O)N[C@@H](CC1CCCCC1)C(N)=O) [3-Carboxypropionyl-[D-Pro24, Pya(4)26, Cha27,36, Aib28,31, Lys30]-PYY(24-36)] | 1.2 | 1.2
Ac-S[dP][Iva][4Pal][Cha][Aib]N[Arg(Me)][Aib]TRQR[Cha]-NH2 [Ac-[D-Pro24, Iva25, Pya(4)26, Cha27,36, Aib28,31, Arg(Me)30]-PYY(23-36)] | 1.7 | 2.4
Ac-S[dP][Arg(Me)][4Pal][Cha][Aib]N[Arg(Me)][Aib]TRQR[Cha]-NH2 (SMILES CNC(=N)NCCC[C@H](NC(=O)[C@H](CC(N)=O)NC(=O)C(C)(C)NC(=O)[C@H](CC1CCCCC1)NC(=O)[C@H](Cc1ccncc1)NC(=O)[C@H](CCCNC(=N)NC)NC(=O)[C@H]1CCCN1C(=O)[C@H](CO)NC(C)=O)C(=O)NC(C)(C)C(=O)N[C@H](C(=O)N[C@@H](CCCNC(=N)N)C(=O)N[C@@H](CCC(N)=O)C(=O)N[C@@H](CCCNC(=N)N)C(=O)N[C@@H](CC1CCCCC1)C(N)=O)[C@@H](C)O) [Ac-[D-Pro24, Arg(Me)25,30, Pya(4)26, Cha27,36, Aib28,31]-PYY(23-36)] | 1.5 | 1.5
Ac-S[dP][Ala(piperidin-4-yl)][4Pal][Cha][Aib]NK[Aib]TRQR[Cha]-NH2 (also: Ala(4Pip)25 D or L, not assigned, later peak isomer) [Ac-[D-Pro24, Ala(4Pip)25, Pya(4)26, Cha27,36, Aib28,31, Lys30]-PYY(23-36) later peak] | 5.8 | 4.3
Ac-S[dP][Iva][4Pal][Cha][Aib]N[hArg][Aib]TRQR[Cha]-NH2 (SMILES CC[C@](C)(NC(=O)[C@H]1CCCN1C(=O)[C@H](CO)NC(C)=O)C(=O)N[C@@H](Cc1ccncc1)C(=O)N[C@@H](CC1CCCCC1)C(=O)NC(C)(C)C(=O)N[C@@H](CC(N)=O)C(=O)N[C@@H](CCCCNC(=N)N)C(=O)NC(C)(C)C(=O)N[C@H](C(=O)N[C@@H](CCCNC(=N)N)C(=O)N[C@@H](CCC(N)=O)C(=O)N[C@@H](CCCNC(=N)N)C(=O)N[C@@H](CC1CCCCC1)C(N)=O)[C@@H](C)O) [Ac-[D-Pro24, Iva25, Pya(4)26, Cha27,36, Aib28,31, Har30]-PYY(23-36)] | 1 | 0.65
Imidazole4carbonyl-S[dP][Nle][4Pal][Cha][Aib]NK[Aib]TRQR[Cha]-NH2 (SMILES CCCC[C@H](NC(=O)[C@H]1CCCN1C(=O)[C@H](CO)NC(=O)c1cnc[nH]1)C(=O)N[C@@H](Cc1ccncc1)C(=O)N[C@@H](CC1CCCCC1)C(=O)NC(C)(C)C(=O)N[C@@H](CC(N)=O)C(=O)N[C@@H](CCCCN)C(=O)NC(C)(C)C(=O)N[C@H](C(=O)N[C@@H](CCCNC(=N)N)C(=O)N[C@@H](CCC(N)=O)C(=O)N[C@@H](CCCNC(=N)N)C(=O)N[C@@H](CC1CCCCC1)C(N)=O)[C@@H](C)O) [4-Imidazolecarbonyl-[D-Pro24, Nle25, Pya(4)26, Cha27,36, Aib28,31, Lys30]-PYY(23-36)] | 1.2 | 1.7
Ac-R[dP][Iva][4Pal][Cha][Aib]NK[Aib]TRQR[Cha]-NH2 (SMILES CC[C@](C)(NC(=O)[C@H]1CCCN1C(=O)[C@H](CCCNC(=N)N)NC(C)=O)C(=O)N[C@@H](Cc1ccncc1)C(=O)N[C@@H](CC1CCCCC1)C(=O)NC(C)(C)C(=O)N[C@@H](CC(N)=O)C(=O)N[C@@H](CCCCN)C(=O)NC(C)(C)C(=O)N[C@H](C(=O)N[C@@H](CCCNC(=N)N)C(=O)N[C@@H](CCC(N)=O)C(=O)N[C@@H](CCCNC(=N)N)C(=O)N[C@@H](CC1CCCCC1)C(N)=O)[C@@H](C)O) [Ac-[Arg23, D-Pro24, Iva25, Pya(4)26, Cha27,36, Aib28,31, Lys30]-PYY(23-36)] | 0.78 | 0.88
[Ahx][dP]R[4Pal][Cha][Aib]NK[Aib]TRQR[Cha]-NH2 (not fully specified (N-terminus); printed as Ac-Acp-D-Pro-Arg-Pya(4)-Cha-Aib-Asn-Lys-Aib-Thr-Arg-Gln-Arg-Cha-NH2) [[Acp23, D-Pro24, Pya(4)26, Cha27,36, Aib28,31, Lys30]-PYY(23-36)] | 1.1 | 0.32
Ac-S[dP][Iva][4Pal][Cha][Iva]NK[Aib]TRQR[Cha]-NH2 (SMILES CC[C@](C)(NC(=O)[C@H](CC1CCCCC1)NC(=O)[C@H](Cc1ccncc1)NC(=O)[C@](C)(CC)NC(=O)[C@H]1CCCN1C(=O)[C@H](CO)NC(C)=O)C(=O)N[C@@H](CC(N)=O)C(=O)N[C@@H](CCCCN)C(=O)NC(C)(C)C(=O)N[C@H](C(=O)N[C@@H](CCCNC(=N)N)C(=O)N[C@@H](CCC(N)=O)C(=O)N[C@@H](CCCNC(=N)N)C(=O)N[C@@H](CC1CCCCC1)C(N)=O)[C@@H](C)O) [Ac-[D-Pro24, Iva25,28, Pya(4)26, Cha27,36, Lys30, Aib31]-PYY(23-36)] | 1 | 1.1
X4-Q[dP]R[4Pal][Cha][Aib]NK[Aib]TRQR[Cha]-NH2 (not fully specified; printed as [(1S)-1-Carboxy-3-methylbutyl]carbamoyl-[Gln23, D-Pro24, Pya(4)26, Cha27,36, Aib28,31, Lys30]-PYY(23-36)) | 1.3 | 0.93
Ac-S[dP][Iva][4Pal][Cha][tBuAla]NK[Aib]TRQR[Cha]-NH2 (SMILES CC[C@](C)(NC(=O)[C@H]1CCCN1C(=O)[C@H](CO)NC(C)=O)C(=O)N[C@@H](Cc1ccncc1)C(=O)N[C@@H](CC1CCCCC1)C(=O)N[C@@H](CC(C)(C)C)C(=O)N[C@@H](CC(N)=O)C(=O)N[C@@H](CCCCN)C(=O)NC(C)(C)C(=O)N[C@H](C(=O)N[C@@H](CCCNC(=N)N)C(=O)N[C@@H](CCC(N)=O)C(=O)N[C@@H](CCCNC(=N)N)C(=O)N[C@@H](CC1CCCCC1)C(N)=O)[C@@H](C)O) [Ac-[D-Pro24, Iva25, Pya(4)26, Cha27,36, Leu(Me)28, Lys30, Aib31]-PYY(23-36)] | 1.2 | 0.76
Isonicotinoyl-S[dP][Iva][4Pal][Cha][Aib]NK[Aib]TRQR[Cha]-NH2 (SMILES CC[C@](C)(NC(=O)[C@H]1CCCN1C(=O)[C@H](CO)NC(=O)c1ccncc1)C(=O)N[C@@H](Cc1ccncc1)C(=O)N[C@@H](CC1CCCCC1)C(=O)NC(C)(C)C(=O)N[C@@H](CC(N)=O)C(=O)N[C@@H](CCCCN)C(=O)NC(C)(C)C(=O)N[C@H](C(=O)N[C@@H](CCCNC(=N)N)C(=O)N[C@@H](CCC(N)=O)C(=O)N[C@@H](CCCNC(=N)N)C(=O)N[C@@H](CC1CCCCC1)C(N)=O)[C@@H](C)O) [4-Pyridinecarbonyl-[D-Pro24, Iva25, Pya(4)26, Cha27,36, Aib28,31, Lys30]-PYY(23-36)] | 1.1 | 1
Imidazole4carbonyl-S[dP][Iva][4Pal][Cha][Aib]NK[Aib]TRQR[Cha]-NH2 (SMILES CC[C@](C)(NC(=O)[C@H]1CCCN1C(=O)[C@H](CO)NC(=O)c1cnc[nH]1)C(=O)N[C@@H](Cc1ccncc1)C(=O)N[C@@H](CC1CCCCC1)C(=O)NC(C)(C)C(=O)N[C@@H](CC(N)=O)C(=O)N[C@@H](CCCCN)C(=O)NC(C)(C)C(=O)N[C@H](C(=O)N[C@@H](CCCNC(=N)N)C(=O)N[C@@H](CCC(N)=O)C(=O)N[C@@H](CCCNC(=N)N)C(=O)N[C@@H](CC1CCCCC1)C(N)=O)[C@@H](C)O) [4-Imidazolecarbonyl-[D-Pro24, Iva25, Pya(4)26, Cha27,36, Aib28,31, Lys30]-PYY(23-36)] | 0.91 | 0.77
Imidazole4carbonyl-S[dP][Iva][4Pal][Cha][Aib]N[Cha][Aib]TRQR[Cha]-NH2 (SMILES CC[C@](C)(NC(=O)[C@H]1CCCN1C(=O)[C@H](CO)NC(=O)c1cnc[nH]1)C(=O)N[C@@H](Cc1ccncc1)C(=O)N[C@@H](CC1CCCCC1)C(=O)NC(C)(C)C(=O)N[C@@H](CC(N)=O)C(=O)N[C@@H](CC1CCCCC1)C(=O)NC(C)(C)C(=O)N[C@H](C(=O)N[C@@H](CCCNC(=N)N)C(=O)N[C@@H](CCC(N)=O)C(=O)N[C@@H](CCCNC(=N)N)C(=O)N[C@@H](CC1CCCCC1)C(N)=O)[C@@H](C)O) [4-Imidazolecarbonyl-[D-Pro24, Iva25, Pya(4)26, Cha27,30,36, Aib28,31]-PYY(23-36)] | 1.9 | 2.3
Ac-S[dP][Ala(piperidin-4-yl)][4Pal][Cha][Aib]NK[Aib]TRQR[Cha]-NH2 (also: Ala(4Pip)25 D or L, not assigned, former peak isomer) [Ac-[D-Pro24, Ala(4Pip)25, Pya(4)26, Cha27,36, Aib28,31, Lys30]-PYY(23-36) former peak] | 14 | 18
